# In the DeepSol protein solubility set:
# Experiment: soluble on expression in E. coli; label from the status in PepcDB or PDB records
row,Sequence,soluble on expression in E. coli
1,MGSDKIHHHHHHMALKGKGQAKSPNVDDNPQLGLESEIPVAPRSKRQTRQAEEVQAKDPYLDSVKELDDVLLKFKKYSKSMSSIENKVFSSSGGCFKSKNERVNAYSFTCSSFADKIEEYSYDPANSFPYKRGVKLVLKESSIYVEVGADTDMYGICVDVCEFSSTAYVLPITNNFEGYLVTRNPSIKMGEILDINNNGVIIKAGGGPPTVINAYALSDSFTINFAPEDEHQDQARYPKQEYSINLIKVAIFGNRGLEKTVTPEAGG,not soluble
2,MGSDKIHHHHHHMALKVLFTGADGYVGALLGPYLLEKGIEAVGLDTGFYRKGWLYPTSAPRPAVITKDIRQVTVADLEGFDAVAHLAELSNDPLGQQSPGLTHEINHGGSMHLAEMARKAGARRFVYMSSCSVYGVGQPEQILDETSPVNPQTAYAECKVKVEEDLTRRADSDFEPCFLRNATAYGASPRQRFDIVLNDLCGLAWTTNKITLQSDGSPWRPLVHALDMCQAVWRSLTAPADAIRGQAYNVGSNDQNYRVIEIARIVADSFPGCELEVGQPSADNRSYRVNFDKIQRVLPEFQCEWTAEKGARQMRQVFERIAMTPEEFRAEPYTRLKMLMRLRASKLLDDKLFWANPMVEAVA,not soluble
3,MGSDKIHHHHHHMALVKLQTQHFRNLLSAPVEFSPSFNLLYGANGSGKTSVLEAIGYLGLGRSFRVSRHQAVVAHGQSKLTVFGALDSGLLAQESSEKVEHRIGISRDVSLKETQLRVDGEAVRSLSFLAMHLPVSVIDPGVFDIVAGGPGKRRQFLDWLVFHVEPSFSSLWQQVQRVTSQRNQMLRNGRLDESLMRVWDSQYGALAESLSDIRETVFQRFKIAFESVLAELDAPWVEGLKMDFYPGWDRSTALTEVLVNHREQERRMGHTLYGPNRADIRLKFGGRPVAETFSRGQQKTLVILMKIAQGKVLSDLGKQVTFLLDDINAELDVRHRVMLARNLQELRCQVFITSIEHPEPDTLWHDGDTPEYRMFHVEHGQLTEE,not soluble
4,MGSDKIHHHHHHMALWQAKQVCPEIIFVPPRMDLYLRFSQMAREIYSEYTDKIEPYGIDEAWLDVSDSGNLKGSGMTIAREISHRIKYELGVTVSIGISWNKIYAKLGSDYKKPDAITEFNRENYKDRIWQLPASDLLYVGRQTNKKLQKLGIRTIGQLAESDEKLLESHFGKIGNVLWAFANGWDEDPVCKEGYEAPVKSIGNSTTTPRDLENDLDVWIIQIALAESVAARLRKHGFKCKTVEITVRDNGLYSFSRQIHLRQPTNITNEIVTAAFQLFKDNYKWEHPIRSLGIRAADLVLDDIPVQLDLFGNQEKKEKLEKLDRTVDEIRRRFGYFSIQRAAMYQDKVLSHLDAGTHTVHPHSYFHG,not soluble
5,MGSDKIHHHHHHMANALGLDFGTTNTVLAQSIDETTTHSVQFTSMAGTTDSMRTALSFMKDAQLGARALKVEAGQAAIRQFIDNPGDCRFLQSIKTFAASALFQGTLVHARRFQFEDLMEVFLKRLETYAGDGWPATASRIVAGRPVHFAGASPDPELAMRRYNEALTRLGFPEIHYVYEPVAAAFYFAQHLTTDATVLVADFGGGTTDYSLIRFERKAGVLSAVPVGYSGVGLAGDQFDARIIEHLVAPEIGKGSQFKSFDKILDIPSNYYTSFSRWNQLSVFKSSKEFADLKQLVRQSLAPDKLELFIDLVEHDEGYPLYQAVSSTKMALSAADEAEFNFSPLGAAGRKTVKRQDFESWIADDLTRIESALDDVLTRTNTEAGAVDKVFLTGGTSFVPAVRRIFTERFSQDRIESGGEMVSIAHGLALIGDRDDIALWTA,not soluble
6,MGSDKIHHHHHHMANFSYEVFSKVVERGTLAKAAAELNVTPSAVSHSVSQLETELGFPLLIRNRTGVALTEDGAQVLPIIQSIQNLEEQLTQVADNINGVNTGRIRIGAFSSVSTNWLPTIIRRFKKRYPHIEISVVQGTFNRIVEAVRLGTADIGFSSLPVGPGVVVEPLLKDPIYCITAKQFKPKNGRTVTQADVDKQNFILQQIDYDRDTKNALDRYHVSSNAINYSIDDQSILSMVESGLGMGILPKLAVQKLVGDVNMYPFSEPFERTLCLVINPTIKKSPSVQRMQQVIHSFLAETYGEAFLGHQG,not soluble
7,MGSDKIHHHHHHMAPEDWLRAETQGDIVALVHSHPGGQPYLSDVDRRLQVQSDLPWWLVCAGQVHKFRCVPHLTGRHYKHGVFDCYTLFRDAYHLAGIDMPDFHRDDDWWRHGDNLYLDNLETTGFYRVSAASAQPGDVLICCFGSSVPNHAAIYCGDGELLHHIPEQLSKRERYTDKWQRRTHSIWRHRAWRASAFTGICNDFAAASACR,not soluble
8,MGSDKIHHHHHHMAPLLFRQILDLEAEAIQRAAERADAEAFANATQLIANCSGKVVLSGVGKSGIIARKITATLLSIGTLSAFLHPCDALHGDLGIVTEQDVVVMLSNSGETDELLAMLPHLQRRQVPIIAIVGNMRSTLARVAAAVLDASVDREACPLNLAPTASTTVALAIGDALAAQVMDYRSVTSEQFAFNHPAGRLGKRLTLKVVDVMHQGEELPLLPPEARFVEVVTAISRGGLGAVPIVEADGRLLGLITDGDLRRLLEQTSPAKLDQITAAEFMTPQPIAVEGDLLAYDALHLMENRPSQISVLPVVDAAQRCLGLVRIHDLIRSGI,not soluble
9,MGSDKIHHHHHHMAQLVAIDNKNHLNLKVDAAKAELHGAGLHLVPAVMAEFTSMAVQYPLVITKNADTGQFVVAAMLGFESGENLFWRGGQWQGLYLPLQIRRQPFFVGNPEQNSEQKVAGDYVVCFDSESPAIVSNDGQALFSEDGVDTEYFQQAKYCLAQLLEGELANKKLLEQLQSMELLQVMQMEVTFANQQSTTLNGLYTIDTEKLAALSAEKIASLHKAGLLQAIYTLITSLGQIHHLIDLKNKQLGC,not soluble
10,MGSDKIHHHHHHMARKDKIVTPSVTQKLQSLGYNVADWDDSKTTSKLTDEIITVLKKASKSENGNEGYPDRIYCNKKKKLLILVEEKPTMQEHNIESIKSGCIAGLKWYLKQFLSEKFSSWKIIGIAVSGDLSDQYKHKFSCFLIDKQKISLAENVNNFLKENEFIALFNNIDEEKAISKVTKVSKKINKLLRSIDSQKRPIILAALMISLYRSEKYDNNFPDIYENYNSEQILNNIYPTVKNILTAEDVPEEKLKSLELELNSINQDPSLKNTNILKEILKELDENIIQLFNDTFSTTSNYDIMGKFYEEFLRFAGVSNVKKGIVLTPRHIATLFTKLIPFKKNDKILDLCCGTGAFLIAGMNKLLSLKGIDAQNVKSNQLLGFEINPTMYICAISNMLFRGDGKSKIYNMDSINDDKVNKIISESAPTIGFINPPYSGKENKEDPTPKEITFLKKC,not soluble
11,MGSDKIHHHHHHMARQFIYHMAGLSKTYGNKKILENIHLSFYPDAKIGILGPNGAGKSTILRIMAGIDKEYTGEAWLSEGVRCGYLPQEPFLDASKDVRDNVMEGVADKQAIVERYNELMMNYSEETADESARLQDIIDGQNLWDLESQVEMAMAALGCPPANGDVTKLSGGERRRVALCKLLLSKPDLLLLDEPTNHLDAETTAWLERYLREYSGAVLLVTHDRYFLDNVTGWILELDRGKGIPYEGNYSAYLAAKAKRLAQEGREEAARQRALSREQEWIASSPKGRQAKSKARIKAYDELVQASRERRPGEAQIIIPIGERLGQVVIEVDNLSKAYGERVLIDDLSFKLPAGGIVGVIGANGMGKSTLFKMLTGQEQPDSGQIRIGETAHMSYVDQSRDSLVGDKTVWEEISGGNDVIKLGKYEMNSRAYCGAFNFKGADQQQKVANLSGGQRNRVHLAKLLKEGGNVLLLDEPTNDLDTETLGALEDALENFAGCAVIISHDRMFLDRLATHILAFEGDGHVEWFEGNFAEYEADKVRRFGADSLNLKRVNYKPLTR,not soluble
12,MGSDKIHHHHHHMASDIHTLSDSLLWKRFLEGDSSAYSQIYNQTVQELFRYGLLYTSDRELVKDCIHDVFVKIYTNRAKLTPTDNIIAYLMVALKNTLFNALKKTSDSFSLDEADEKEDQSEEHFSTPETIYINKEQEKNTHMKVHAMMSSLTTRQREIVYYRYIKDMSIDEISKITDMNYQSVSNSIQRALGRVRNLFKRE,not soluble
13,MGSDKIHHHHHHMASIDFRNKINWHRRYRSPQGVKTEHEILRIFESDRGRIINSPAIRRLQQKTQVFPLERNAAVRTRLTHSMEVQQVGRYIAKEILSRLKEQDRLEEYGLDALTGPFESIVEMACLMHDIGNPPFGHFGEAAINDWFRQRLHPEDAESQPLTHDRCVVSSLRLQEGEENLNDIRRKVRQDICHFEGNAQGIRLVHTLMRMNLTWAQVGGILKYTRPAWWRGPVPDSHRYLMKKPGYYLSEEKYIARLRKELQLAPYSRFPLTWIMEAADDISYCVADLEDAVEKRIFSVEQLYHHLYHAWCHHEKDSLFELVVGNAWEKSRANTLSRSTEDQFFMYLRVNTLNKLVPYAAQRFIDNLPQIFAGTFNQALLEDASGFSRLLELYKNVAVEHVFSHPDVEQLELQGYRVISGLLDIYQPLLSLSLNDFRELVEKERLKRFPIESRLFQKLSTRHRLAYVEVVSKLPTDSAEYPVLEYYYRCRLIQDYISGMTDLYAWDEYRRLMAVEQ,not soluble
14,MGSDKIHHHHHHMASLPRLYYVTSGLDEANAFATWRAVISPLFEPRPCGPSRKTPTGSAYGIIIGDLVVAKVAFNAQDFVRDAQRIAVTPDHLLLHLYVSGGFNGEVTRQQTVIGPGKVALIDLACPLSTRAFASNTMCLIVPRKLLAGLPLHALKPKLDPLRNDLLAAYIRSLQERSAQLTEADVATTVAETADFLRRLLAPSAEADLAPERSADETILALTEALIRDNLALPELSPDWLAQQLDVSRASLYRLFAERGGVMRYVQERRLLAVQAALADPLETRRLSRLASDLGFKSEAHFSRSFRARFGITASAYRKAQLDASAAIQLTSPAVVQQWWTAVARDPLRHAG,not soluble
15,MGSDKIHHHHHHMATGTLPDAGQILNSLINSILLVDDDLAVHFANPAAQQLLAQSSRKLFGTPLPELLSYFSLNIGLMQESLQAGQGFTDNEVTLVIDGRSHILSLTAQRLPEGFILLEMAPMDNQRRLSQEQLQHAQQVAARDLVRGLAHEIKNPLGGLRGAAQLLSKALPDPALTEYTKVIIEQADRLRNLVDRLLGPQHPGMHVTESIHKVAERVVKLVSMELPDNVKLIRDYDPSLPELPHDPDQIEQVLLNIVRNALQALGPEGGEIILRTRTAFQLTLHGVRYRLAARIDVEDNGPGIPPHLQDTLFYPMVSGREGGTGLGLSIARSLIDQHSGKIEFTSWPGHTEFSVYLPIRK,not soluble
16,MGSDKIHHHHHHMATKHEQILQYITNLEVGEKISVRRIAKDLQVSEGTAYRAIKEAENQGLVSTIERVGTIRIEKKQKENIEKLTYAEVVNIVDGQVLGGRDGLHKTLNRFVIGAMKLDAMMRYVEPGNLLIVGNRYQVHQIALEAGAAVLITGGFDTSDEAIKLADELDLPVISTSYDTFTVATMINRAIYDQLIKKEITLVDDILIPLQDTYYMTTENVVGKWHELNEKTGHSRYPVIDENMKIQGMVAAKDVLNASRHTPIEKVMTKNPITVSERTSVAAVAHVMVWEGIELLPVIDSHRKLIGVVSRQDVLKALQMIQRQPHVGETIEDLMTNGLNESSSDQGDSYEVEITPQMTNQLGTISHGVMTSLVIESGSRVLRKYKKGDLVVENITLYFLKPVQIDSRLTIRPRVLEIGRKHGKIDVEMYHEGEIVGKALFMAQIID,not soluble
17,MGSDKIHHHHHHMAVLVTRPDERGQQLVDMLAKAGVVAIHLPLFRIESGAELNELPNKFAKLKNGDYVFAVSKSAVDFAFKTLTATGFVWRHDLHYFTVGQGTAQYFTATTEMPVHYPTAQENSEGLLQLNAMQDLSDKTVLILRGNGGRELFAEQAQQRGANVEIVECYRREPIVYNNAEQTSICKRAGIQTIVVTSAEILTQLVDFVPQNEHNWLKSCQLITVSERIAHLAEALGWQNVVISPRADNQTLLQTLLQCR,not soluble
